Measurements taken from patent US6242195.

Assays:
[1] = biological target: CD20 antigen (Homo sapiens (Human)) (UniProt P11836); assay: flow cytometry on WIL2-S cells, EC50 against C2B8 reference
[2] = biological target: CD20 antigen (Homo sapiens (Human)) (UniProt P11836)
[3] = biological target: C1q (human) (UniProt P02745)
[4] = biological target: FcγRIIa α subunit ECD-6-His-GST fusion protein (Homo sapiens (Human)) (UniProt P12318); assay: ELISA, E27:chimeric IgE:VEGF complex on coated receptor
[5] = biological target: FcγRIIb α subunit ECD-6-His-GST fusion protein (Homo sapiens (Human)) (UniProt P31994); assay: as above
[6] = biological target: C1q (human) (UniProt P02745); assay: C1q binding ELISA, antibody coated, up to 100 µg/ml
[7] = biological target: C1q (human) (UniProt P02745); assay: C1q binding ELISA, antibody coated
[8] = biological target: FcγRIIIa α subunit ECD-6-His-GST fusion protein (Homo sapiens (Human)) (UniProt P08637); assay: ELISA, E27:chimeric IgE:VEGF complex on coated receptor
Sequence of FcγRIIIa α subunit ECD-6-His-GST fusion protein (Homo sapiens (Human)) (P08637 17-208): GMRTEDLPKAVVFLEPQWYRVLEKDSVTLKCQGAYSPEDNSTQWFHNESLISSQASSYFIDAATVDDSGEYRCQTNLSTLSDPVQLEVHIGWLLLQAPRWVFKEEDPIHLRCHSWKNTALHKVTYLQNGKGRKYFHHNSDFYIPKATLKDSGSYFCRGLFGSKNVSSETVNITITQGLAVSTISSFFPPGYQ

[9] = biological target: FcγRI α subunit-GST fusion (Homo sapiens (Human)) (UniProt P12314); assay: ELISA, monomeric IgG on coated FcγRI α subunit-GST
Sequence of FcγRI α subunit-GST fusion (Homo sapiens (Human)) (P12314 16-292): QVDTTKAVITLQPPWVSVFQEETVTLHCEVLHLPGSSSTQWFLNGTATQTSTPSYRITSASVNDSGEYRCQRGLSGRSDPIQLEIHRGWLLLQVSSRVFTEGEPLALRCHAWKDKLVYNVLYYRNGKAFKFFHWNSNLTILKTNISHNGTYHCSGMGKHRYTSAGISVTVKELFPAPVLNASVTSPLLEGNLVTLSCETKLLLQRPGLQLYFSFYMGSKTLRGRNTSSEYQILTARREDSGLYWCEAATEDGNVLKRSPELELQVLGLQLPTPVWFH

C2B8 mutant P329A (antibody) showed a CD20 binding, percentage of the wild type (% of wild type) [1] of 112.
With C2B8 mutant K320A (antibody) the CD20 binding, percentage of the wild type (% of wild type) [1] was 102, the CDC, percentage of the wild type (% of wild type) [2] was 108 and the CDC, percentage of the wild type (% of wild type) [3] was 108.
Substance E27 anti-IgE antibody, Fc mutant K322A has a binding, percentage of the wild type (% of wild type) [4] of 109 and a binding, percentage of the wild type (% of wild type) [5] of 101.
Work on C2B8 mutant P331A (antibody) yielded a CD20 binding, percentage of the wild type (% of wild type) [1] of 103 and a fold lower binding to C1q than wild type C2B8 [6] of 60 fold lower.
For C2B8 mutant E318A (antibody), the decrease in binding to C1q against wild type C2B8 [7] was 30%, the CD20 binding, percentage of the wild type (% of wild type) [1] was 89 and the CDC, percentage of the wild type (% of wild type) [2] was 108. The CDC, percentage of the wild type (% of wild type) [3] was 108.
E27 anti-IgE antibody, Fc mutant K320A was tested, and the binding, percentage of the wild type (% of wild type) [8] was 72, the binding, percentage of the wild type (% of wild type) [5] was 83 and the binding, percentage of the wild type (% of wild type) [9] was 102.
E27 anti-IgE antibody, Fc mutant E318A gave a binding, percentage of the wild type (% of wild type) [8] of 104, a binding, percentage of the wild type (% of wild type) [4] of 113 and a binding, percentage of the wild type (% of wild type) [5] of 106. It also gave a binding, percentage of the wild type (% of wild type) [9] of 93.
In the case of E27 anti-IgE antibody, Fc mutant P331A, the binding, percentage of the wild type (% of wild type) [8] is reported as 73, the binding, percentage of the wild type (% of wild type) [4] is reported as 86 and the binding, percentage of the wild type (% of wild type) [5] is reported as 58. The binding, percentage of the wild type (% of wild type) [9] was 74.
E27 anti-IgE antibody, Fc mutant P329A was tested, and the binding, percentage of the wild type (% of wild type) [8] was 85 and the binding, percentage of the wild type (% of wild type) [9] was 104.
